{"source": "paper PMC7894528", "about": "“Metal Ion Promiscuity and Structure of 2,3‐Dihydroxybenzoic Acid Decarboxylase of Aspergillus oryzae” (Chembiochem, 2020)", "substrate": "O=C(O)c1cccc(O)c1O", "experiment": "steady-state decarboxylation kinetics", "type": "biochemical, Aspergillus oryzae", "details": "Mg2+-loaded enzyme; decarboxylation direction"}
{"protein": "2,3-DHBD_Ao (Aspergillus oryzae RIB40) (protein, recombinant, purified by size exclusion chromatography) MLGKIALEEAFALPRFEEKTRWWASLFSTDAETHVKEITDINKIRIEHADKHGVGYQILSYTAPGVQDIWDPVEAQALAVEINDYIAEQVRVNPDRFGAFATLSMHNPKEAADELRRCVEKYGFKGALVNDTQRAGPDGDDMIFYDNADWDIFWQTCTELDVPFYMHPRNPTGTIYEKLWADRKWLVGPPLSFAHGVSLHVLGMVTNGVFDRHPKLQIIMGHLGEHVPFDMWRINHWFEDRKKLLGLAETCKKTIRDYFAENIWITTSGHFSTTTLNFCMAEVGSDRILFSIDYPFETFSDACEWFDNAELNGTDRLKIGRENAKKLFKLDSYKDSSA", "values": [{"measurement": "Km", "result": 208, "unit": "µM"}, {"measurement": "kcat", "result": 15, "unit": "s–1"}]}
